The record followed here is article PMC9926122, “Kinetochore-microtubule attachment in human cells is regulated by the interaction of a conserved motif of Ska1 with EB1” (The Journal of Biological Chemistry, 2022).

B1: EB1-GST (natural protein, human, UniProt Q15691 1-268, looked up)
chain: MAVNVYSTSVTSDNLSRHDMLAWINESLQLNLTKIEQLCSGAAYCQFMDMLFPGSIALKKVKFQAKLEHEYIQNFKILQAGFKRMGVDKIIPVDKLVKGKFQDNFEFVQWFKKFFDANYDGKDYDPVAARQGQETAVAPSLVAPALNKPKKPLTSSSAAPQRPISTQRTAAAPKAGPGVVRKNPGVGNGDDEAAELMQQVNVLKLTVEDLEKERDFYFGKLRNIELICQENEGENDPVLQRIVDILYATDEGFVIPDEGGPQEEQEEY
notes: also called GST-tagged EB1; source: E. coli BL21 DE3, purified (Glutathione Sepharose)
B2: recombinant EB1 (HS-AFM and microtubule experiments) (natural protein, human, UniProt Q15691 1-268, looked up)
chain: B1 chain
notes: recombinant EB1 with N-terminal calponin homology domains (EB1-N), linker and C-terminal dimer region (EB1-C) seen by HS-AFM; The only EB1 expression construct that the methods describe is GST-tagged EB1 in pGEX 5x3; also called EB1 dimer; source: recombinant

What all share (conditions): both partners purified
The target of experiment [1] is T1, 6xHis-tagged WT Ska1 (human, UniProt Q96BD8 1-255).
T1 construct: WT Ska1 from the plasmid pEC-S-CDF-His Ska1; Probably whole Ska1 (1-255); also called 6xHis Ska1 WT; 6xHis-Ska1; source: E. coli BL21 DE3, purified (Ni2+-NTA)
T1 sequence (Q96BD8 whole entry): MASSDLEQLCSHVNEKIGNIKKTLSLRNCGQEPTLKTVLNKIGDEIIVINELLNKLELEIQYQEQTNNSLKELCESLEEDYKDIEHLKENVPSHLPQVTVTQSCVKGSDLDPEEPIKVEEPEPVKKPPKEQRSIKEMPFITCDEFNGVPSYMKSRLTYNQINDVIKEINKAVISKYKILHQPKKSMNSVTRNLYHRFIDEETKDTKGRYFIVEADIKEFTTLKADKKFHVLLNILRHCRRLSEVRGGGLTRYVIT
Description: pull-down; competition: EB1-GST preincubated with the SXIP peptide aptamer for 2 h, GSH beads added, then incubated with Ska1 WT protein; rising doses of peptide.

In experiment [2] the target is T1, 6xHis-tagged WT Ska1. Description: high-speed atomic force microscopy (HS-AFM); proteins (10-30 nM; 10 nM in the frames shown) in BRB80 buffer (80 mM Pipes, 1 mM EGTA, 1 mM MgCl2, pH 6.9) on mica, tapping mode, 150 ms per frame; EB1 alone, Ska1 alone and their mixture.
For experiment [3], the target named is B1. Description: pull-down.

For the molecule B1, the binding result in experiment [1] is reported as “binds”.

As for B2, the binding result in experiment [2] is reported as “binds”. ALNGQSRIPVLKRHTR [SXIP peptide aptamer]: in experiment [3], the “percent reduction of EB1-Ska1 association at 1:5 M ratio of EB1:peptide” value was roughly 70%.
